One test concerns the target hLF (UniProt P02788). As to the kind of experiment: ITC. Background: In ITC the heat of successive injections is recorded.
For a further test, the target named is T1, Tp0655 (Treponema pallidum, UniProt O83661).
T1 sequence (O83661 24-348): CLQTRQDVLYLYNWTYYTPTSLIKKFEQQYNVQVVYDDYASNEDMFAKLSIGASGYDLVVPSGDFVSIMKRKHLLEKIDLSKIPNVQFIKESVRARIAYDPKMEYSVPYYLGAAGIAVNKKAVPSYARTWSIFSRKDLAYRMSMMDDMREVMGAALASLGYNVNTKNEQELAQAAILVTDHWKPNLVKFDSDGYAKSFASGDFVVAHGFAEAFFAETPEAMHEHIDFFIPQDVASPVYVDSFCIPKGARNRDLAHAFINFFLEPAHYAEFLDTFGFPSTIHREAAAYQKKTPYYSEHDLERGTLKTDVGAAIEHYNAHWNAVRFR
The test can be described thus: isothermal titration calorimetry. It is filed as binding.

The target of another test is SynIIIC (Rattus norvegicus, UniProt O70441). As to the kind of experiment: isothermal titration calorimetry. The class given is binding.
Chain of SynIIIC (O70441 89-403): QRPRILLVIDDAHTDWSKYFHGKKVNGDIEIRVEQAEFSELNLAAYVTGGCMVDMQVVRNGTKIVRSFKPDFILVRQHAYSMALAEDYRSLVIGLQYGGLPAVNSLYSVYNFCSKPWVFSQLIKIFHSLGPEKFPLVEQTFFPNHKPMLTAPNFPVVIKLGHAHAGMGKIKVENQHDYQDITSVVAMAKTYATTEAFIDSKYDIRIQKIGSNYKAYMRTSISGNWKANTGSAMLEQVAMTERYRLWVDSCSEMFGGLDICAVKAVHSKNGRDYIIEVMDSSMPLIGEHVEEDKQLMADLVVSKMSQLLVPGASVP
The target in test [1] is bovine α-chymotrypsin (bovine). The test can be described thus: ITC.
The target in test [2] is bovine α-chymotrypsin (bovine). As to the kind of experiment: ITC. The source holds these as a separate data set.
Test [3] addresses bovine α-chymotrypsin (bovine). The test can be described thus: ITC. The source holds these as a separate data set.
The target in a further test is HIF2α (Homo sapiens, UniProt Q99814). The test can be described thus: isothermal titration calorimetry. The class given is binding.
Chain of HIF2α (Q99814 239-350): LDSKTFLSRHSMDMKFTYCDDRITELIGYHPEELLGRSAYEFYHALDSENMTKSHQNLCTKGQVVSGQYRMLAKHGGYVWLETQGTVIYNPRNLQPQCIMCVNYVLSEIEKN

Broadly, the Kd is the free concentration of one partner at which half of the binding sites on the other are occupied at equilibrium, for simple one-to-one binding. A high value points to lower affinity.

Several values for one entry are separate records, joined by “and”; a condition that tells them apart may be missing. Equal entries are not always repeated. Where two headings read alike, the source gives them in different places.

Chain of hLF (P02788 20-710): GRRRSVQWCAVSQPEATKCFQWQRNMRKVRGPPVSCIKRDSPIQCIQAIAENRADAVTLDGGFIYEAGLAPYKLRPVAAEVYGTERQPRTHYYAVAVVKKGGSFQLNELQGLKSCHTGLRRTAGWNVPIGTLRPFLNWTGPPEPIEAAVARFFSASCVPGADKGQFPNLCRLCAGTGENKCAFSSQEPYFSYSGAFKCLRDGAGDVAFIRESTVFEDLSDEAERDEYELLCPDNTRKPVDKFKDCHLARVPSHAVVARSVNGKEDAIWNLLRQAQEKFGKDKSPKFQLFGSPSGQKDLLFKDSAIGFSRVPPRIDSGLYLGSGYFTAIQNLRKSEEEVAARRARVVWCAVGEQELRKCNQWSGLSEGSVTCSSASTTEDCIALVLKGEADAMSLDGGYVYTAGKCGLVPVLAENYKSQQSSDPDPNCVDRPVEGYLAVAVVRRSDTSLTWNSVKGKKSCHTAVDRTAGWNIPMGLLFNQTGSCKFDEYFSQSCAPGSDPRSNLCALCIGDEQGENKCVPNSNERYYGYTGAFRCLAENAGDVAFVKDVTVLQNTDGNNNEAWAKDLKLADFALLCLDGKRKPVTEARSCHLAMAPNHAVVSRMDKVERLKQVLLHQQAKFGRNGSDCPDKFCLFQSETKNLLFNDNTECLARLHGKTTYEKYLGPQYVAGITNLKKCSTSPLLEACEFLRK

In the case of “Tp34 (from UniProt P19478 20-204) (natural protein)”, in the test with hLF, the Kd was 11.3 µM and 11 µM and 22.3 µM; the log(Ka) is 4.95; the logKa is 4.96 and 4.65.
For the compound `NCCCCNCCCN` [Spermidine], the dissociation constant Kd on Tp0655 was determined as 2.37 µM.
“Tp34 (files named H70ATp34hLF...) (from UniProt P19478 20-204) (natural protein)” had a dH with hLF of 4.9 kcal/mol.
In the case of `NCCCN` [DAP], binding at Tp0655 was characterised by a dissociation constant (Kd) of 36.2 µM.
Same read-out and setting: the value for `NCCCCN` [Putrescine] was 0.117 µM.
`Nc1ncnc2c1ncn2[C@@H]1O[C@H](COP(=O)(O)OP(=O)(O)OP(=O)(O)O)[C@@H](O)[C@H]1O` [ATP] returned a Kd on SynIIIC of 0.136 µM.
Regarding “Soybean trypsin inhibitor (from UniProt P01070 25-205) (natural protein)”, in test [1], the dH is 10.3 kcal/mol and 10.9 kcal/mol and 9.7 kcal/mol; the logKa was found to be 7.27. For the same compound, in test [2], the dH is 10.5 kcal/mol (2×) and 10.4 kcal/mol; the log(Ka) is 6.89 and 6.98 and 7. Besides, in test [3], the dH is 10.5 kcal/mol (2×) and 10.3 kcal/mol; the logKa is 6.99 and 7 and 6.9.
`O=[N+]([O-])c1c(Nc2cc(F)cc(Cl)c2)ccc2nonc12` [HBA, N-(3-Chloro-5-fluorophenyl)-4-nitrobenzo[c][1,2, 5]oxadiazol-5-amine]: the Kd at HIF2α was determined as 0.105 µM.
